{"source": "paper PMC9302186", "about": "“Defining variant-resistant epitopes targeted by SARS-CoV-2 antibodies: A global consortium study” (Science (New York, N.y.), 2021)", "binders": {"B1": {"name": "CoVIC-259 (antibody, V domains shown)", "VH": "EVQLVESGGGVVQPGRSLRLSCAASGFTFSSYAMHWVRQAPGKGLEWVAVLSYDGSNKYNADSVKGRFTISRDNSKNTLYLQMNSLRVEDTAMYYCARDGVSVTMVRGVIGPLCDYWGQGTLVTVSS", "VL": "not shown", "notes": "also called RBD-1 community representative"}}, "target": "T1, SARS-CoV-2 spike trimer (as imaged by NS-EM) (SARS-CoV-2, ancestral (Wuhan-Hu-1, …, UniProt P0DTC2))", "T1 construct": "also called spike trimers; spike protein", "assay": "negative-stain electron microscopy", "settings": "both partners purified", "data": [{"binder": "B1", "values": [{"measurement": "binding result", "value": "binds"}]}]}
